target: human TNFSF9 (R&D Systems; #2295-4L-025/CF) (human) (UniProt P41273); test: MSD ELISA: TNFSF9 + 1 ug/mL antibody, binding to coated TNFRSF9
Sequence (P41273 71-254 limits assumed): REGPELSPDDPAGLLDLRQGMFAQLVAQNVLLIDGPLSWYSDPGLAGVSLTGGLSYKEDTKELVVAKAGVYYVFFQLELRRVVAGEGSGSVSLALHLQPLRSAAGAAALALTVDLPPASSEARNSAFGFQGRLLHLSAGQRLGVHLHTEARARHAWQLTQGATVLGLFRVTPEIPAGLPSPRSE

Row | Substance | % inhibition of ligand receptor interaction [%]
1 | huIgG1 (antibody) | 0
2 | mouse IgG1 isotype control antibody | 1
3 | msIgG2a (antibody) | -4
4 | msIgG2b (antibody) | -5

Reference: patent publication US20190016812A1
